This note sets out measurements from PMC11401910, “Dual client binding sites in the ATP-independent chaperone SurA” (Nature Communications, 2024).

Conditions in all cases: both partners purified
For experiment [1], the target named is T1, SurA-WT (E. coli, UniProt P0ABZ6 21-428).
T1 construct: no cleavage step is described; For NMR the protein was made in D2O medium with 13C labels on Ile delta1 and Met epsilon methyls; also called wild-type SurA; apo-SurA; source: E. coli BL21(DE3), purified (HisTrap, dialysis)
T1 sequence (looked up): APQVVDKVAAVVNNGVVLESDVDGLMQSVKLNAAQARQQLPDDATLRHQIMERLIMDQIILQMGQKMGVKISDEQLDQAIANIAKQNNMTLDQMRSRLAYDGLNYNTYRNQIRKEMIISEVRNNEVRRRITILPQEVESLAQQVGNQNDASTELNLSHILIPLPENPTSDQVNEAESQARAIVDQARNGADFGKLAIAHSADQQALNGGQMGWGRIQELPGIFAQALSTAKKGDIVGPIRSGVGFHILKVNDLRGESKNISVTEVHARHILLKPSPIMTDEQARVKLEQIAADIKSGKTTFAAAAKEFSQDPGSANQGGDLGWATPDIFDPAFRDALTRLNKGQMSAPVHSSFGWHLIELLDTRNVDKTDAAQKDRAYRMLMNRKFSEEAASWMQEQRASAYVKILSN
The experiment can be described thus: NMR titration; methyl-TROSY (2D 1H-13C SOFAST-HMQC) of Ile/Met 13CH3-labelled SurA-WT, single point: 5 µM SurA and 5 µM unfolded OMP; 5 mM EDTA, 20 mM Tris-HCl, pH 8.0, 0.8 M urea, 25 °C; peak intensities and CSPs.

Experiment [2] deals with T1, SurA-WT. Nature of the experiment: MST; 100 nM Alexa Fluor 488-labelled tBamA or OmpX, SurA-WT or SurA-core in serial dilution (40 μM–1.2 nM for tBamA, 12.5 μM–3 nM for OmpX); 0.8 M urea, 20 mM Tris-HCl, pH 8.0, 25 °C; fitted to a Hill equation, apparent Kd.
In experiment [3] the target is T2, SurA-core (E. coli, UniProt P0ABZ6 21-428, deleting codons for residues 172–389).
T2 construct: gene numbering including the signal peptide; no cleavage step described; also called core domain; construct lacking both PPIase domains; source: E. coli BL21(DE3), purified (HisTrap, dialysis)
T2 sequence (looked up): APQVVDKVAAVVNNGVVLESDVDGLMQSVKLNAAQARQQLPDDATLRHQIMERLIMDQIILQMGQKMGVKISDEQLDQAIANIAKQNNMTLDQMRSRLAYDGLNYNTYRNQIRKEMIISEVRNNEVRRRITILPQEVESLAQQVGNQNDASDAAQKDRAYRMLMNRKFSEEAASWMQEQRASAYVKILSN
The description is as above.

The target of experiment [4] is T1, SurA-WT. Nature of the experiment: FRET or BRET; single-molecule FRET (pulsed interleaved excitation) between donor and acceptor on the two termini of unfolded OmpX (~75 pM) with 30 μM SurA-WT or SurA-core; 20 mM Tris-HCl, 0.1 M urea, 0.02% Tween-20, 1 mM aged Trolox, pH 8.0, ~21 °C; binding is read from the change of the client's own FRET distribution. (BRET reads energy transfer from a luciferase to a nearby fluorophore.)

Experiment [5] has as its target T2, SurA-core. Described as above.

B1: OmpF (natural protein, UniProt P02931 23-362, looked up)
chain: AEIYNKDGNKVDLYGKAVGLHYFSKGNGENSYGGNGDMTYARLGFKGETQINSDLTGYGQWEYNFQGNNSEGADAQTGNKTRLAFAGLKYADVGSFDYGRNYGVVYDALGYTDMLPEFGGDTAYSDDFFVGRVGGVATYRNSNFFGLVDGLNFAVQYLGKNERDTARRSNGDGVGGSISYEYEGFGIVGAYGAADRTNLQEAQPLGNGKKAEQWATGLKYDANNIYLAANYGETRNATPITNKFTNTSGFANKTQDVLLVAQYQFDFGLRPSIAYTKSKAKDVEGIGDVDLVNYFEVGATYYFNKNMSTYVDYIINQIDSDNKLGVGSDDTVAVGIVYQF
notes: Unfolded client (0.8 M urea); source: E. coli BL21[DE3], inclusion bodies, purified in 6 M Gdn-HCl (Superdex 75)
Consider B1, for which, in the experiment with SurA-WT [1], the binding result is “binds”.

B2: Cys-OmpX labelled with Alexa Fluor 488 (natural protein)
chain: MGSCATSTVTGGYAQSDAQGQMNKMGGFNLKYRYEEDNSPLGVIGSFTYTEKSRTASSGDYNKNQYYGITAGPAYRINDWASIYGVVGVGYGKFQTTEYPTYKHDTSDYGFSYGAGLQFNPMENVALDFSYEQSRIRSVDVGTWIAGVGYRF
modifications: Alexa Fluor 488 on the N-terminal Cys
notes: lacks the C-terminal Cys of Cys-OmpX-Cys; The MST methods say only 'Alexa Fluor 488-labelled OmpX'; also called Alexa Fluor 488-labelled OmpX; OmpX (MST); source: E. coli BL21[DE3], inclusion bodies, purified; labelled by maleimide chemistry
Take B2: the binding result with SurA-WT [2] and in the experiment with SurA-core [3] was “binds” throughout.

B3: Cys-OmpX-Cys labelled with Alexa Fluor 488 and ATTO 565 (natural protein)
chain: MGSCATSTVTGGYAQSDAQGQMNKMGGFNLKYRYEEDNSPLGVIGSFTYTEKSRTASSGDYNKNQYYGITAGPAYRINDWASIYGVVGVGYGKFQTTEYPTYKHDTSDYGFSYGAGLQFNPMENVALDFSYEQSRIRSVDVGTWIAGVGYRFC
modifications: Alexa Fluor 488 and ATTO 565 via maleimide on the N- and C-terminal Cys residues (stochastic labelling)
notes: additional C-terminal Cys residue; Unfolded client in 0.1 M urea; also called OmpX (smFRET); FRET-labelled OmpX; source: E. coli BL21[DE3], inclusion bodies, purified; labelled by maleimide chemistry
Consider B3, for which the binding result with SurA-WT [4] and in the experiment with SurA-core [5] was “binds” in each case.

B4: tOmpA (domain or fragment, UniProt P0A910 22-192, looked up)
chain: APKDNTWYTGAKLGWSQYHDTGFINNNGPTHENQLGAGAFGGYQVNPYVGFEMGYDWLGRMPYKGSVENGAYKAQGVQLTAKLGYPITDDLDIYTRLGGMVWRADTKSNVYGKNHDTGVSPVFAGGVEYAITPEIATRLEYQWTNNIGDAHTIGTRPDNGMLSLGVSYRFG
notes: as for B1
For the molecule B4, the binding result in the experiment with SurA-WT [1] is reported as “binds”.

B5: OmpX (natural protein, UniProt P0A917 24-171, looked up)
chain: ATSTVTGGYAQSDAQGQMNKMGGFNLKYRYEEDNSPLGVIGSFTYTEKSRTASSGDYNKNQYYGITAGPAYRINDWASIYGVVGVGYGKFQTTEYPTYKHDTSDYGFSYGAGLQFNPMENVALDFSYEQSRIRSVDVGTWIAGVGYRF
notes: Unfolded client in the assay (0.8 M urea); Cloned at the NdeI site, so a start Met probably precedes residue 24; also called unfolded OmpX; full-length OmpX; source: E. coli BL21[DE3], inclusion bodies, purified in 6 M Gdn-HCl (Superdex 75)
For B5, the binding result in the experiment with SurA-WT [1] is “binds”.
